The values below come from the supplement of paper PMC9732359.

± gives the uncertainty stated by the source.

The data set is described as follows: protein stability index of a GFP-peptide fusion (yeast GPS) (PSI 1-4); higher = more stable; sorted into four equal gates, so the index is relative within each strain. The procedure, abridged: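 Yeast carrying a pooled library were grown to mid-log phase in leucine-free medium. Each library plasmid expresses Cherry and has a tiled 17-residue yeast protein peptide fused downstream of GFP. Cells were sorted into four equal gates by GFP/Cherry ratio, and plasmids from each gate were PCR-amplified, Illumina-sequenced and assigned to strains by barcode. Summing, across gates, the read frequency times the gate number gave each peptide's protein stability index.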

As to NNSSITLRCSVVEACGN [YCS4], the protein stability index runs as follows: (doa10∆) 1.78 ± 0.064; (pdr5∆) 1.23 ± 0.056; (san1∆) 1.13 ± 0.14; (ubr1∆) 1.25 ± 0.041.
Taken in the same sequence, the figures for QNYLKTYNEDIPVEILV [PRE9] were 2.79 ± 0.066, 2.05 ± 0.084, 2.76 ± 0.091 and 2.38 ± 0.071.
Taken in the same sequence, the figures for KGLQIYQSSVQEPFLNS [PRP8] were 2.89 ± 0.05, 2.94 ± 0.044, 2.76 ± 0.048 and 2.83 ± 0.04.
Taken in the same sequence, the figures for RALYTPFLLMELHKKLV [YDL116W/NUP84] were 1.82 ± 0.094, 1.45 ± 0.087, 1.29 ± 0.22 and 1.26 ± 0.13.
Regarding KTLSLKSMASAFGVSVA [RPN7], where the note is “ubr1∆”, the protein stability index was found to be 1.21 ± 0.13.
Take EFFNTLRKSRETVKLPR [RRI2]: the protein stability index (pdr5∆) was 3.55 ± 0.18 and the protein stability index (san1∆) was 3.02 ± 0.15.
For GLCMLGTGKPEAIHDMF [RPN2], the protein stability index is, setting by setting: (doa10∆) 2.75 ± 0.15; (pdr5∆) 3.46 ± 0.29; (san1∆) 3.19 ± 0.064; (ubr1∆) 3.18 ± 0.075.
Taken in the same sequence, the figures for GEIIDISAFTQFLRLIF [ARP9] were 2.45 ± 0.08, 2.23 ± 0.075, 2.59 ± 0.11 and 2.94 ± 0.065.
On the same counts, the results for RKSVFAPLNFNPIIENN [SSN2] are 2.65 ± 0.058, 2.98 ± 0.073, 2.75 ± 0.06 and 2.71 ± 0.069.
Take PSELNQLKMVNERELNV [RPC82]: the protein stability index was 3.14 ± 0.13 (doa10∆) and 2.94 ± 0.15 (pdr5∆).
Take NVVIDEAVEIPVNSADG [SME1]: the protein stability index was found to be 2.97 ± 0.084 (doa10∆), 3.35 ± 0.068 (pdr5∆), 3.24 ± 0.041 (san1∆) and 2.98 ± 0.045 (ubr1∆).
Taken in the same sequence, the figures for QGIVPDIIMNPHGFPSR [RET1] were 2.64 ± 0.05, 2.76 ± 0.057, 2.74 ± 0.042 and 2.56 ± 0.037.
As for LLSDVVSTSSGAAANNN [YJL041W/NSP1], the protein stability index runs as follows: (doa10∆) 3.24 ± 0.077; (pdr5∆) 3.06 ± 0.11; (san1∆) 3.32 ± 0.047; (ubr1∆) 3.52 ± 0.11.
As for RRVKQLDDITDSNTTEI [SIR4], the protein stability index (doa10∆) came out at 3.27 ± 0.086, the protein stability index (pdr5∆) amounted to 3.14 ± 0.072, the protein stability index (san1∆) amounted to 2.83 ± 0.069 and the protein stability index (ubr1∆) was determined as 3 ± 0.065.
Regarding SKVASSLVIIILVKRYS [ECM29], the protein stability index (doa10∆) stood at 1.85 ± 0.054, the protein stability index (pdr5∆) came to 1.44 ± 0.042, the protein stability index (san1∆) is 1.71 ± 0.094 and the protein stability index (ubr1∆) is 2.12 ± 0.051.
Turning to SLIEDFVDGIANSKKST [SRB7], the protein stability index reads like this: (doa10∆) 3.29 ± 0.14; (pdr5∆) 3.35 ± 0.092; (san1∆) 3.03 ± 0.062; (ubr1∆) 3.04 ± 0.062.
The sequence GKLLRNYTQNIDNLESY [SIR2] had a protein stability index (doa10∆) of 3.48 ± 0.21, a protein stability index (pdr5∆) of 3.17 ± 0.27 and a protein stability index (san1∆) of 3.09 ± 0.13.
Turning to LIGAATKFKGGKRQLMK [SEC65], the protein stability index runs as follows: (doa10∆) 1.64 ± 0.1; (pdr5∆) 2.03 ± 0.084; (san1∆) 2.14 ± 0.11; (ubr1∆) 1.93 ± 0.14.
On the same counts, the results for IKNVIVSNRVAAPARAG [RPP0] are 1.82 ± 0.13, 2.44 ± 0.11, 3 ± 0.14 and 1.96 ± 0.22.
As to LRQFKTCPVEVIKRLEA [BRR2], the protein stability index was 2.94 ± 0.18 (doa10∆), 3.23 ± 0.17 (pdr5∆) and 2.81 ± 0.1 (ubr1∆).
In the case of ISEFDSFTDILKSAIRD [RPN12], the protein stability index (doa10∆) is 2.73 ± 0.12, the protein stability index (pdr5∆) came to 3.15 ± 0.17, the protein stability index (san1∆) came to 3.04 ± 0.11 and the protein stability index (ubr1∆) was 2.42 ± 0.13.
EAQIKDWVENELEALKL [FAS2]: the protein stability index stood at 1.96 ± 0.14 (doa10∆), 1.25 ± 0.091 (pdr5∆) and 2.01 ± 0.1 (ubr1∆).
GCVDIDDALHAKKLPNG [DIS3]: the protein stability index is, setting by setting: (doa10∆) 3.26 ± 0.059; (pdr5∆) 3.23 ± 0.051; (san1∆) 3.14 ± 0.04; (ubr1∆) 3.14 ± 0.037.
Taken in the same sequence, the figures for IKLNGSTLLCTDLESKS [SNU114] were 2.67 ± 0.06, 2.73 ± 0.058, 2.54 ± 0.056 and 2.82 ± 0.063.
On the same counts, the results for ETAQAINGWELTKAQKY [RPL17A] are 3.27 ± 0.055, 3.35 ± 0.049, 3.18 ± 0.034 and 3.28 ± 0.043.
Taken in the same sequence, the figures for HDAIFSIYKYIHLNELL [SNF12] were 2.31 ± 0.051, 2.43 ± 0.046, 1.95 ± 0.074 and 2.01 ± 0.038.
As for ENVLAIGIAGAHRVRDL [SKI6], the protein stability index reads like this: (doa10∆) 1.97 ± 0.065; (pdr5∆) 2.21 ± 0.059; (san1∆) 2.1 ± 0.084; (ubr1∆) 1.74 ± 0.052.
